From patent US20200248336A1 come the findings set out here.

A word on the Kd: it is the concentration at which binding is half-saturated. A high value points to weaker binding.

In assay [1] the target is TAGT-12 (human). Nature of the assay: BLI, Octet RED96, antigen-Fc on AHC sensor, Fab in solution. In general terms: In BLI a coated tip is dipped into the sample, and binding shifts an interference pattern.
Assay [2] deals with TAGT-12 (human). Nature of the assay: BLI (Octet RED96), antigen Fc-His on AHC sensor, Fab in solution.
Assay [3] concerns the target TAGT-12 (human). Nature of the assay: BLI Octet RED96, antigen-Fc on AHC sensor, Fab analyte.
The target of assay [4] is TAGT-8 (human). Nature of the assay: BLI Octet, antigen-Fc on AHC sensor, Fab analyte.
Assay [5] deals with TAGT-8H (human). Nature of the assay: BLI (Octet RED96), antigen-Fc on AHC sensor, Fab in solution.
The target in assay [6] is TAGT-8H (human). The experiment in a line: BLI Octet RED96, antigen-Fc on AHC sensor, Fab analyte.
Assay [7] concerns the target TAGT-6 (human). The experiment in a line: BLI Octet, antigen-Fc on AHC sensor, Fab analyte.
For assay [8], the target named is TAGT-6 (human). The experiment in a line: BLI (Octet RED96), antigen Fc-His on AHC sensor, Fab in solution.
Assay [9] addresses TAGT-6 (human). Nature of the assay: BLI (Octet RED96), antigen-Fc on AHC sensor, Fab in solution.
The target in assay [10] is TAGT-6 (human). Nature of the assay: BLI (Octet), antigen-Fc on AHC sensor.
For assay [11], the target named is TAGT-6 (human). The experiment in a line: BLI Octet RED96, antigen-Fc on AHC sensor, Fab analyte.
The target of assay [12] is TAGT-12 (human). The experiment in a line: BLI (Octet), antigen-Fc on AHC sensor.
Assay [13] addresses TAGT-12 (human). The experiment in a line: BLI (Octet RED96), antigen-Fc on AHC sensor, Fab in solution.
The target of assay [14] is TAGT-8M (mouse). Nature of the assay: BLI (Octet), antigen-Fc on AHC sensor.
Assay [15] addresses TAGT-8 (human). The experiment in a line: BLI (Octet), antigen-Fc on AHC sensor.
In assay [16] the target is TAGT-8M (mouse). Nature of the assay: BLI (Octet RED96), antigen Fc-His on AHC sensor, Fab in solution.
For assay [17], the target named is TAGT-8 (human). Described as above.
The target of assay [18] is TAGT-8M (mouse). Nature of the assay: BLI (Octet RED96), antigen-Fc on AHC sensor, Fab in solution.
The target in assay [19] is TAGT-8 (human). Nature of the assay: BLI, Octet RED96, antigen-Fc on AHC sensor, Fab in solution.
The target of assay [20] is TAGT-8H (human). Nature of the assay: BLI (Octet), antigen-Fc captured, Fab in solution.

B1: Hit ID 6010 (Fab, V domains shown)
VH: EVQLVESGGGLVQPGGSLRLSCAASGYSISSGHYWNWIRQAPGKGLEWIGWINPNRGDTNYAQKFQGRVTISRDNSKNTLYLQLNSLRAEDTAVYYCARDYYGDFDYWGQGTLVTVSS
VL: DIQLTQSPSSLSASVGDRVTITCRASQSISSYLNWYQQKPGKAPKLLIYDASNLETGVPSRFSGSGSGTDFTLTISSLQPEDFATYYCQHHYGTPLTFGQGTKVEIKR
Regarding B1, the Kd in the assay with TAGT-12 (human) [1], in the assay with TAGT-12 (human) [2] and with TAGT-12 (human) [3] was 28.3 nM each time.

B2: Hit ID 7040 (Fab, V domains shown)
VH: EVQLVESGGGLVQPGGSLRLSCAASGYSISSGYYWNWIRQAPGKGLEWIGWISPSGGSTNYAQKFQGRVTISRDNSKNTLYLQLNSLRAEDTAVYYCARDLTAGGFDYWGQGTLVTVSS
VL: DIQLTQSPSSLSASVGDRVTITCRASQGISSYLAWYQQKPGKAPKLLIYDASNLETGVPSRFSGSGSGTDFTLTISSLQPEDFATYYCQQYYSTPLTFGQGTKVEIKR
As to B2, the Kd with TAGT-8 (human) [4], with TAGT-8H (human) [5] and with TAGT-8H (human) [6] was 27.2 nM in each case.

B3: Hit ID 7183 (Fab, V domains shown)
VH: EVQLVESGGGLVQPGGSLRLSCAASGYSISSGHYWNWIRQAPGKGLEWVSSISGYGDTTYYADSVKGRFTISRDNSKNTLYLQLNSLRAEDTAVYYCAREGSDTVLGDWFAYWGQGTLVTVSS
VL: DIQLTQSPSSLSASVGDRVTITCRASQSISSYLNWYQQKPGKAPKLLIYDASNRATGIPSRFSGSGSGTDFTLTISSLQPEDFATYYCQQSYSTPPTFGQGTKVEIKR
B3: the Kd in the assay with TAGT-6 (human) [7], in the assay with TAGT-6 (human) [8] and with TAGT-6 (human) [9] was 14.8 nM each time.

B4: Hit ID 7097 (Fab, V domains shown)
VH: EVQLVESGGGLVQPGGSLRLSCAASGYSISSGHHWDWIRQAPGKGLEWVSYISGAGDTTYYADSVKGRFTISRDNSKNTLYLQLNSLRAEDTAVYYCAREGSDAVLGDWFAYWGQGTLVTVSS
VL: DIQLTQSPSSLSASVGDRVTITCRASQGISSYLAWYQQKPGKAPKLLIYDASNLETGVPSRFSGSGSGTDFTLTISSLQPEDFATYYCQQYYSTPLTFGQGTKVEIKR
Regarding B4, the Kd with TAGT-6 (human) [10], with TAGT-6 (human) [9] and in the assay with TAGT-6 (human) [11] was 24.3 nM in each case.

B5: Hit ID 5115 (Fab, V domains shown)
VH: EVQLVESGGGLVQPGGSLRLSCAASGYSISSGHYWGWIRQAPGKGLEWIGEIYHSGSTYYSPSLKSRVTISRDNSKNTLYLQLNSLRAEDTAVYYCARESYYAFDYWGQGTLVTVSS
VL: DIQLTQSPSSLSASVGDRVTITCRASQSVSSYLAWYQQKPGKAPKLLIYAASTLQSGVPSRFSGSGSGTDFTLTISSLQPEDFATYYCQQYYTTPLTFGQGTKVEIKR
Take B5: the Kd in the assay with TAGT-12 (human) [12] and with TAGT-12 (human) [13] was 11.6 nM throughout.

B6: Hit ID 4027 (Fab, V domains shown)
VH: EVQLVESGGGLVQPGGSLRLSCAASGYSITSGHHWNWIRQAPGKGLEWIGWISPSSGGTKYAQKFQGRVTISRDNSKNTLYLQLNSLRAEDTAVYYCARGFDGFHYWGQGTLVTVSS
VL: DIQLTQSPSSLSASVGDRVTITCRASESVDFYGISFLPWYQQKPGKAPKLLIYDASNRATGIPSRFSGSGSGTDFTLTISSLQPEDFATYYCQQSYSWPWTFGQGTKVEIKR
Take B6: the Kd was determined as 3.81 nM in the assay with TAGT-8M (mouse) [14]; 1.55 nM with TAGT-8 (human) [15]; 3.81 nM with TAGT-8M (mouse) [16]; 1.55 nM in the assay with TAGT-8 (human) [17]; 3.81 nM with TAGT-8M (mouse) [18]; 1.55 nM in the assay with TAGT-8H (human) [5].

B7: Hit ID 5404 (Fab, V domains shown)
VH: EVQLVESGGGLVQPGGSLRLSCAASGYSISSGYHWAWIRQAPGKGLEWIGEIYHSGSTYYSPSLKSRVTISRDNSKNTLYLQLNSLRAEDTAVYYCARSPYYYGVFDYWGQGTLVTVSS
VL: DIQLTQSPSSLSASVGDRVTITCSASSRVGSVYWYQQKPGKAPKLLIYDASNLETGVPSRFSGSGSGTDFTLTISSLQPEDFATYYCQQYTHDPVTFGQGTKVEIKR
Turning to B7, the Kd with TAGT-6 (human) [10], in the assay with TAGT-6 (human) [9] and with TAGT-6 (human) [11] was 3.3 nM throughout.

B8: Hit ID 4036 (Fab, V domains shown)
VH: EVQLVESGGGLVQPGGSLRLSCAASGFSLSTSGVGVGWIRQAPGKGLEWIGEIYHSGSTYYSPSLKSRVTISRDNSKNTLYLQLNSLRAEDTAVYYCARERYGSYYFDYWGQGTLVTVSS
VL: DIQLTQSPSSLSASVGDRVTITCRASQSVDFYGKSFLDWYQQKPGKAPKLLIYDASSLESGVPSRFSGSGSGTDFTLTISSLQPEDFATYYCQQYYRIPPTFGQGTKVEIKR
In the case of B8, the Kd in the assay with TAGT-8 (human) [15], in the assay with TAGT-8 (human) [19] and with TAGT-8H (human) [6] was 3.13 nM each time.

B9: Hit ID 4034 (Fab, V domains shown)
VH: EVQLVESGGGLVQPGGSLRLSCAASGYSISSGHYWNWIRQAPGKGLEWVSSISGYGSTTYYADSVKGRFTISRDNSKNTLYLQLNSLRAEDTAVYYCARERYYGSTDYAFDYWGQGTLVTVSS
VL: DIQLTQSPSSLSASVGDRVTITCSASSRVSHVFWYQQKPGKAPKLLIYAASTLQSGVPSRFSGSGSGTDFTLTISSLQPEDFATYFCLQGTHFPWTFGQGTKVEIKR
Take B9: the Kd in the assay with TAGT-8 (human) [4], with TAGT-8H (human) [20] and in the assay with TAGT-8 (human) [17] was 4.27 nM in each case.
